B1: antibody 0058 (antibody, V domains shown)
VH: EVQLVESGGGLVQPGGSLRLSCAASGFTFSSFWMTWVRQAPGKGLEWVASISAGGGITHYPDSVKDRFTVSRDNAKNSLYLQLNSLRAEDTAVYYCAESGGDIYSDFDYWGQGTLVTVSS
VL: not shown
notes: Human antibody from a human Ig locus transgenic rabbit; IgG
B2: antibody 0064 (antibody, V domains shown)
VH: EVQLVESGGGLVQPGGSLRLSCAASGFTFSSYWMSWVRQAPGKGLEWVSTISDGGGTTSYADSVKGRFTISRDNSKNTLYLQMNSLRAEDTAVYSCAESGGATDYLFDYWGQGTLVTVSS
VL: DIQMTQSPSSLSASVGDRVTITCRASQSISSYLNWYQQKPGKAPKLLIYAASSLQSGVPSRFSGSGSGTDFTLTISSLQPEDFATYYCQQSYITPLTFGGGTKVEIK
notes: as for B1
B3: antibody 0060 (antibody, V domains shown)
VH: EVQLLESGGDLVQPGGSLRLSCAASGFTFRSYAMSWVRQAPGKGLEWVSGISAGGGYIYYADSVTGRFTSSRDNYKNTLYLQMNRLRVEDTAVYYCARFYPGYNSDTYYYDGMDVWGQGTTVTVSS
VL: not shown
notes: as for B1

Columns and labels:
human PDGF-BB [1] = target: T1, human PDGF-BB (human, UniProt P01127 82-190); assay: SPR, IgG
T1 construct: Bought recombinant protein (Cell Signaling 8921BF or R&D Systems 220-BB); also called huPDGF-BB; recombinant human PDGF-BB

human PDGF-BB [2] = target: T1, human PDGF-BB; assay: cell-based or functional assay
human PDGF-BB [3] = target: T1, human PDGF-BB; assay: cell-based or functional assay; remark: listed apart in the source
human PDGF-BB [4] = target: T1, human PDGF-BB; assay: SPR, IgG, apparent KD (App. KD**)
cynomolgus PDGF-BB [5] = target: T2, cynomolgus PDGF-BB (cynomolgus, UniProt A0A2K5UX81 82-190, Disulfide-linked homodimer of two identical B chains; one copy is given.); assay: ELISA, cynomolgus PDGF-BB (Example 10)
T2 construct: also called cynPDGF-BB

rat PDGF-BB = rat PDGF-BB (rat, UniProt Q05028 74-182); assay: ELISA, immobilized rat PDGF-BB (Example 12)
Description: (§1) The binding analysis was carried out using an enzyme-linked immunosorbent assay (ELISA)-based technology. The antigen rat PDGF-BB (R&D, 520-BB) was immobilized at a concentration of 125 ng/mL in 25 μL in PBS, 0.5% BSA and 0.05% Tween on a 384 well microtiter plate (Thermo Scientific, Cat. No. 464718). Every of the following steps was followed by a washing routine of 3 times 90 μL PBS, 0.5% BSA, 0.05 Tween with dispense and aspiration: 1) blocking step: saturating unbound surface (1 hour, 2% BSA); 2) anti-PDGF-BB antibody in increasing concentrations for 1 hour; 3) detection antibody, dilution=1:3000 (ECL anti-rabbit IgG-POD, NA9340V+ECL anti-human IgG-POD, NA933V or alternatively for murine antibodies ECL anti-mouse IgG-POD; NA 9310V). 20-30 min. after adding the substrate 3,3′,5,5′-tetramethylbenzidine (TMB, Piercenet, Cat. No. 34021) the optical density was determined at 370 nm. The EC₅₀ was calculated with a four parameter logistic model using GraphPad Prism 6.0 software.

human PDGF-BB [6] = target: T1, human PDGF-BB; assay: ELISA, immobilized human PDGF-BB (Example 9)
Description: as §1, with “antigen human” for “antigen rat”, “PDGF-BB (Cell Signaling, Cat. No 8921BF)” for “PDGF-BB (R&D, 520-BB)”, “μL PBS” for “μL PBS, 0.5% BSA, 0.05 Tween”

murine PDGF-BB = target: T3, murine PDGF-BB (murine, UniProt P31240 82-190); assay: ELISA, immobilized murine PDGF-BB (Example 11)
T3 construct: also called muPDGF-BB
Description: as §1, with “antigen murine” for “antigen rat”, “PDGF-BB (Peprotech 315-18)” for “PDGF-BB (R&D, 520-BB)”

cynomolgus PDGF-BB [7] = target: T2, cynomolgus PDGF-BB; assay: SPR, IgG on immobilized cynomolgus PDGF-BB (Example 18)
Description: The binding analysis was carried out using a surface plasmon resonance spectroscopy-based technology applying a BIAcore B4000 system (GE Healthcare). The antigen cynomolgus PDGF-BB was immobilized at a concentration of 1 μg/mL in PBS, 0.1% BSA, 0.05% Tween using amine coupling chemistry on a C1 sensor chip (GE Healthcare, Cat. No. BR-1005-35). Anti-PDGF-BB antibody in increasing concentrations was applied in 10 mM HEPES pH 7.2, 150 mM NaCl. Utilizing a read out time of 180 sec. association phase and 600 sec. dissociation phase the apparent kₐ and apparent kd were calculated. The apparent KD (avidity) was calculated using the BIAcore T200 v2.0 fitting software.

Chain of rat PDGF-BB (Q05028 74-182): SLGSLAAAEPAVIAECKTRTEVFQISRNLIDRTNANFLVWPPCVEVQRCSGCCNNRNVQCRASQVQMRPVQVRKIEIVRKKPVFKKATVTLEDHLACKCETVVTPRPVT
T3 sequence (P31240 82-190): as the sequence (Q05028 74-182) above, with V83I, V102I counted along it
T2 sequence (A0A2K5UX81 entry or part of it limits assumed): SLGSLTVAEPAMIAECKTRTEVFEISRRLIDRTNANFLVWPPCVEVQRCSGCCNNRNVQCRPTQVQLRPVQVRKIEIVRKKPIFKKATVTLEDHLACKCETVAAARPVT
T1 sequence (P01127 82-190 limits assumed): as the sequence (A0A2K5UX81 entry or part of it limits assumed) above, with V7I counted along it

Binder	T½ (human PDGF-BB [1]) [h]	IC50 Phospho-Inhibition (human PDGF-BB [2]) [µg/mL]	IC50 Proliferation 3T3 (human PDGF-BB [2]) [µg/mL]	Balb-C3T3 Proliferation % neutralization (human PDGF-BB [3]) [%]	Balb-C3T3 Proliferation IC50 (human PDGF-BB [3]) [nM]	Pericytes Migration % neutralization (human PDGF-BB [3]) [%]	Pericytes Migration IC50 (human PDGF-BB [3]) [nM]	Pericytes Proliferation % neutralization (human PDGF-BB [3]) [%]	Pericytes Proliferation IC50 (human PDGF-BB [3]) [nM]	Kd (human PDGF-BB [4]) [nM]	EC50 (cynomolgus PDGF-BB [5]) [µg/mL]	EC50 (rat PDGF-BB) [µg/mL]	EC50 (human PDGF-BB [6]) [µg/mL]	EC50 (murine PDGF-BB) [µg/mL]	koff (cynomolgus PDGF-BB [7]) [s⁻¹]	kon (cynomolgus PDGF-BB [7]) [M⁻¹ s⁻¹]
B1	1.42	0.0029	0.0793	100	0.24	100	0.002	100	0.08	0.046	0.0034	0.0966	0.0401	0.0332	6.53e-05	2.27e+06
B2	1.9		0.062	100	0.024	100	0.14	100	0.08	0.021	0.00741	0.00369	0.016	0.00268	4.42e-05	740000
B3	1.9	0.0016	0.0363	90	0.29	100	0.013	100	0.6	0.021	0.0415	0.11	0.0375	0.0428	< 1e-05	330000
